Measured values from paper PMC8233511.
Like-named read-outs stand apart in the source and are kept apart here.

Experiments:
Assay in all cases: EMSA
[1] = target: Oct4 POU domain;Sox2 HMG domain (mouse?;mouse?, UniProt P20263;P48432 131-282;43-111, |)
[2] = target: T1, Oct4 POU domain homodimer (UniProt P20263 131-282)
[3] = target: T1, Oct4 POU domain homodimer; remark: listed apart in the source
Oct4 POU domain = Oct4 POU domain (UniProt P20263 131-282)
[4] = target: Oct4 POU domain;Sox17 HMG domain (mouse?;mouse?, UniProt P20263;Q61473 131-282;68-136, |)
Sequence of Oct4 POU domain;Sox17 HMG domain (P20263 131-282, chain 1 of 2): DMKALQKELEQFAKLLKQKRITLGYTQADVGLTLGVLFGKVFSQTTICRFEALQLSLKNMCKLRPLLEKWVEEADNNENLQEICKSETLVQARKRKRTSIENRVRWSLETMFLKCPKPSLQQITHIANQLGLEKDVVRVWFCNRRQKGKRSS
Sequence of Oct4 POU domain;Sox17 HMG domain (Q61473 68-136, chain 2 of 2): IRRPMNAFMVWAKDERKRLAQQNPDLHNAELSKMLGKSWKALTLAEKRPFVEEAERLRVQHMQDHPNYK

T1 sequence (P20263 131-282): as the sequence (P20263 131-282, chain 1 of 2) above
Sequence of Oct4 POU domain (P20263 131-282): as the sequence (P20263 131-282, chain 1 of 2) above
Sequence of Oct4 POU domain;Sox2 HMG domain (P20263 131-282, chain 1 of 2): as above
Sequence of Oct4 POU domain;Sox2 HMG domain (P48432 43-111, chain 2 of 2): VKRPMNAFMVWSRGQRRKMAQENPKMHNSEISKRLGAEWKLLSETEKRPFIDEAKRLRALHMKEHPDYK

B1: SoxOct canonical (dsDNA)
DNA 1: GCGGCATTGTCATGCAAATCGGCGG
DNA 2: CCGCCGATTTGCATGACAATGCCGC
binding result [1]: binds

B2: MOREA4+1 (dsDNA)
DNA 1: GCCGCCATGAATAATTCATGCCGCCG
DNA 2: CGGCGGCATGAATTATTCATGGCGGC
binding result [2]: binds

B3: MOREC4 (dsDNA)
DNA 1: GGCCTCATGCATATGCATGCGGCGG
DNA 2: CCGCCGCATGCATATGCATGAGGCC
binding result [2]: binds

B4: PORE (dsDNA)
DNA 1: GGATCCATTTGCCTTTCAAATGTGG
DNA 2: CCACATTTGAAAGGCAAATGGATCC
binding result [3]: binds

B5: Octamer (dsDNA)
DNA 1: GGCGGCGGATGCAAATCGGCGGCGG
DNA 2: CCGCCGCCGATTTGCATCCGCCGCC
binding result (Oct4 POU domain): binds

B6: MOREA4 (dsDNA)
DNA 1: GCCGCCATGAATATTCATGCCGCCGC
DNA 2: GCGGCGGCATGAATATTCATGGCGGC
binding result [2]: binds

B7: SoxOct compressed (dsDNA)
DNA 1: GGCGGCATTGTATGCAAATCGGCGG
DNA 2: CCGCCGATTTGCATACAATGCCGCC
binding result [4]: binds
